# Experimental data published in IntAct's records for PubMed 19942855.
# What was measured:
# [1] = molecular target: spp_human HM13 (UniProt Q8TCT9)
# [2] = molecular target: spp_human HM13 (UniProt Q8TCT9); remark: listed apart in the source
# Chain of spp_human HM13 (Q8TCT9 whole entry): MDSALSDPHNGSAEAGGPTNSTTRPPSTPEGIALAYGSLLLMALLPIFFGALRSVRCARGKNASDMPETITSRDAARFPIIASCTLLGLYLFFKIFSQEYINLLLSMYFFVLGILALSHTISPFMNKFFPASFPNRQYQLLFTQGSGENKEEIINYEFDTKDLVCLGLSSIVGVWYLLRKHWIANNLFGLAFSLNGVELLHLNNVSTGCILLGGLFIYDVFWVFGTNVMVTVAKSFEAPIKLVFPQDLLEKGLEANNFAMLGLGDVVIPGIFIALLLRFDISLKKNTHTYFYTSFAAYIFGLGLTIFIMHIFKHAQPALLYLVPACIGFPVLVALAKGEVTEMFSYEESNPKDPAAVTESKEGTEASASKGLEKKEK
# Chain of Protein disulfide-isomerase (Homo sapiens), P07237 C53S (P07237 whole entry C53S): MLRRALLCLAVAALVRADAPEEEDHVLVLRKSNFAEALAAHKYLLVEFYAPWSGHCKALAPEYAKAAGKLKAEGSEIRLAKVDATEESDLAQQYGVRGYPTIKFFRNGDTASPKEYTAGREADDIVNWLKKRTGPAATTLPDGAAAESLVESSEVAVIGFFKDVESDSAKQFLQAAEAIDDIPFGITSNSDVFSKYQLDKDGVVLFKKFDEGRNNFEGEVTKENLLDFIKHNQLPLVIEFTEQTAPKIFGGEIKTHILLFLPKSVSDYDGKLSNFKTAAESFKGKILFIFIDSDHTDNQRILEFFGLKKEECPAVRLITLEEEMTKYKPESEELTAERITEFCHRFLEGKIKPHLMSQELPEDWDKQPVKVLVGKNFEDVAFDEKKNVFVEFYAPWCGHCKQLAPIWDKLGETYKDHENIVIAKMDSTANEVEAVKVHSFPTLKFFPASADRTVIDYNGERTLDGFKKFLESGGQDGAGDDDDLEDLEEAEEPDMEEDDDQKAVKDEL
# Chain of Protein disulfide-isomerase (Homo sapiens), P07237 F275W (P07237 whole entry F275W): as the sequence (P07237 whole entry C53S) above, with S53C, F275W counted along it
# Chain of Protein disulfide-isomerase (Homo sapiens), P07237 C397S (P07237 whole entry C397S): as the sequence (P07237 whole entry C53S) above, with S53C, C397S counted along it
# Chain of Protein disulfide-isomerase (Homo sapiens), P07237 I289A (P07237 whole entry I289A): as the sequence (P07237 whole entry C53S) above, with S53C, I289A counted along it
# Chain of Protein disulfide-isomerase (Homo sapiens), P07237 C56S (P07237 whole entry C56S): as the sequence (P07237 whole entry C53S) above, with S53C, C56S counted along it
# Chain of Protein disulfide-isomerase (Homo sapiens), P07237 C400S (P07237 whole entry C400S): as the sequence (P07237 whole entry C53S) above, with S53C, C400S counted along it
Substance,effect of a mutation on the interaction [1],effect of a mutation on the interaction [2]
"Protein disulfide-isomerase (Homo sapiens), P07237 C53S",decreasing interaction,
"Protein disulfide-isomerase (Homo sapiens), P07237 C397S",decreasing interaction,
"Protein disulfide-isomerase (Homo sapiens), P07237 C400S",decreasing interaction,
"Protein disulfide-isomerase (Homo sapiens), P07237 I289A",,increasing interaction

# Next, values leading:
effect of a mutation on the interaction [1],effect of a mutation on the interaction [2],Substance
decreasing interaction,,"Protein disulfide-isomerase (Homo sapiens), P07237 C56S"
,increasing interaction,"Protein disulfide-isomerase (Homo sapiens), P07237 F275W"
